The target in assay [1] is T1, human 5T4 with L309 mutated to alanine, on HEK293 cells (human, UniProt Q13641 32-420).
T1 sequence: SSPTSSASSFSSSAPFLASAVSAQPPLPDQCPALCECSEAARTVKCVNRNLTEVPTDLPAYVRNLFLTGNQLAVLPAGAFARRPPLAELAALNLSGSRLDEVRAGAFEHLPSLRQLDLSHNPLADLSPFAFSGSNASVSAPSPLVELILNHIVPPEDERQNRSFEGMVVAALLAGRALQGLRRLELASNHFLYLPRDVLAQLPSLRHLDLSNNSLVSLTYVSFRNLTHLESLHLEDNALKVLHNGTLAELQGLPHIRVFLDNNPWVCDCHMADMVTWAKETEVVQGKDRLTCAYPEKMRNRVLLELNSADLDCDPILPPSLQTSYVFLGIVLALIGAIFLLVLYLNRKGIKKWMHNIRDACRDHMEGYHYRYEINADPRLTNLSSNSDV
Nature of the assay: alanine scanning, flow cytometry on HEK293 cells, normalised to bsIgG1-5T4-A1-F405Lxb12-FEAR-FITC. A general note: A flow cytometer gives signals particle by particle.

The target in assay [2] is T2, human 5T4 with P326 mutated to alanine, on HEK293 cells (human, UniProt Q13641 32-420).
T2 sequence: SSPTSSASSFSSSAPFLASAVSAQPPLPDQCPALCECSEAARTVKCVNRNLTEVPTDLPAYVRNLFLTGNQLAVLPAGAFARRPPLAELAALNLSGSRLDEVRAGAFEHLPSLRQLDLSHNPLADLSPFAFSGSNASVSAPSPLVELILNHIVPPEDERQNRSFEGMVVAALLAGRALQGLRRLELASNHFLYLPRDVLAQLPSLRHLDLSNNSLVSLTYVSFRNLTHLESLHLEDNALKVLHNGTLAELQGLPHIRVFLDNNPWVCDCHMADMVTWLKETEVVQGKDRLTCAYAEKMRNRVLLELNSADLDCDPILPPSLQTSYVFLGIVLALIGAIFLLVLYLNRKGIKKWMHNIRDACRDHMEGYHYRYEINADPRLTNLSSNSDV
Described as above.

For assay [3], the target named is T3, human 5T4 with L281 mutated to alanine, on HEK293 cells (human, UniProt Q13641 32-420).
T3 sequence: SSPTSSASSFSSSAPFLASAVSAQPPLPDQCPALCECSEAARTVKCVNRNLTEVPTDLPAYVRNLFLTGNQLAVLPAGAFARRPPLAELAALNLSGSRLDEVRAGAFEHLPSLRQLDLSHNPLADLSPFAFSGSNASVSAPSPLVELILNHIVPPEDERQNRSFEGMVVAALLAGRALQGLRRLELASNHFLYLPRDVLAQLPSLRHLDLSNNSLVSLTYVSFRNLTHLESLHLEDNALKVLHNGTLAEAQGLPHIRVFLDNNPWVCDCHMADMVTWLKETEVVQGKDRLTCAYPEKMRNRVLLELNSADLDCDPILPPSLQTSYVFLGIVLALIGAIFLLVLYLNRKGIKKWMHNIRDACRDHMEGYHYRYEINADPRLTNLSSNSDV
Described as above.

Assay [4] concerns the target T4, human 5T4ECDHis (mature protein of SEQ ID NO: 99) (human, UniProt Q13641 32-355).
T4 construct: ECD of human 5T4 (aa 1-355 of Uniprot Q13641) with C-terminal His tag; residues 1-31 are the signal peptide; also called ECD of human 5T4 with a C-terminal His tag
T4 sequence: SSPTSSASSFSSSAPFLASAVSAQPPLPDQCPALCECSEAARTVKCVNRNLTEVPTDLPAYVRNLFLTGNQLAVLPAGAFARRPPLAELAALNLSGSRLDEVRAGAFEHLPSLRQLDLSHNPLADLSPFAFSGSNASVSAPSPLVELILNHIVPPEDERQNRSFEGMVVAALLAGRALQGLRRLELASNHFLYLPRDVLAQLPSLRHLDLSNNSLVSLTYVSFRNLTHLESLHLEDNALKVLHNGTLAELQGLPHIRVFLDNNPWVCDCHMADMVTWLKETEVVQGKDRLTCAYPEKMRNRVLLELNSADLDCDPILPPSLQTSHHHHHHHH
Nature of the assay: BLI cross-block; competitor (immobilised): IgG1-5T4-H8-FEAR.

For assay [5], the target named is T4, human 5T4ECDHis (mature protein of SEQ …). Kind of assay: BLI cross-block; competitor (immobilised): IgG1-5T4-059-FEAR.
For assay [6] the target is unchanged. Nature of the assay: BLI cross-block; competitor (immobilised): IgG1-5T4-076-FEAR.
For assay [7] the target is unchanged. Kind of assay: BLI cross-block; competitor (immobilised): IgG1-5T4-085-FEAR.
The target is the same in assay [8]. Kind of assay: BLI cross-block; competitor (immobilised): IgG1-5T4-106-FEAR.
The target is the same in assay [9]. Nature of the assay: BLI cross-block; competitor (immobilised): IgG1-5T4-127-FEAR.
The target is the same in assay [10]. Kind of assay: BLI cross-block; competitor (immobilised): IgG1-5T4-207-FEAR.
Assay [11] shares this target. Kind of assay: BLI cross-block; competitor (immobilised): IgG1-5T4-226-FEAR.
Assay [12] has the same target. Kind of assay: BLI cross-block; competitor (immobilised): IgG1-5T4-A1-F405L.
The target is the same in assay [13]. Kind of assay: BLI cross-block; competitor (immobilised): IgG1-5T4-A3-F405L.
Assay [14] has as its target T5, full length human 5T4 (SEQ ID NO: 1) on cells (human, UniProt Q13641 32-420).
T5 construct: Uniprot Q13641; residues 1-31 are the signal peptide; Used both for transfected HEK-293 cells and for 5T4-expressing human tumor cell lines
T5 sequence: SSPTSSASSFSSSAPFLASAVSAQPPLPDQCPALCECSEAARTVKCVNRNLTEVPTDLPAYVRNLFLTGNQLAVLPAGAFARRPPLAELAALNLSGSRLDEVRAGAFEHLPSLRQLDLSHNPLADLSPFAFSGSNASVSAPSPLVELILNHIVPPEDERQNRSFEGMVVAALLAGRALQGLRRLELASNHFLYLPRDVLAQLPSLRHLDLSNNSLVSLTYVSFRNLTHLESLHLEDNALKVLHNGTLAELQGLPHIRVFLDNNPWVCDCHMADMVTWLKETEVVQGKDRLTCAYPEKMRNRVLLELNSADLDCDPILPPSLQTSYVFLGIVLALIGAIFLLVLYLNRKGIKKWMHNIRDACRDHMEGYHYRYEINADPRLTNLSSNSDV
Kind of assay: flow cytometry, MDA-MB-231 cells, PE secondary [III)F].

Assay [15] deals with T5, full length human 5T4 (SEQ ID NO: 1) on …. Nature of the assay: flow cytometry, HEK-293 cells transfected with human 5T4, PE secondary [II)G].
The target of assay [16] is T6, full length cynomolgus monkey 5T4 on transfected HEK-293 cells (cynomolgus monkey, UniProt Q4R8Y9 35-420).
T6 construct: Uniprot Q4R8Y9; residues 1-34 are the signal peptide; also called cynomolgus 5T4
T6 sequence: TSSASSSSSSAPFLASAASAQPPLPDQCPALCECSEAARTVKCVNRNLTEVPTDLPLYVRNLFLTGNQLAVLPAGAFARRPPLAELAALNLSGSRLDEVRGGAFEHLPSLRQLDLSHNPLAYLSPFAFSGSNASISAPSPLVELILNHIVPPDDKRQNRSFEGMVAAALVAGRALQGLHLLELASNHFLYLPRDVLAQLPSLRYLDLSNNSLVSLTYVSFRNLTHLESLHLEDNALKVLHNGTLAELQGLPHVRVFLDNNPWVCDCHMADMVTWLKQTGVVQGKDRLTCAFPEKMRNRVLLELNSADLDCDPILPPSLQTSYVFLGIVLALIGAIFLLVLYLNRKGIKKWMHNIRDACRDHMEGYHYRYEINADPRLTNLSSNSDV
Kind of assay: flow cytometry, HEK-293 cells transfected with cynomolgus monkey 5T4, PE secondary [II)G].

The target in assay [17] is T4, human 5T4ECDHis (mature protein of SEQ …). Kind of assay: BLI, antibody on anti-human IgG Fc Capture biosensor, antigen in solution; 50 s dissociation window.
Assay [18] concerns the target T7, recombinant cynomolgus monkey 5T4 protein (Cusabio; cat. no. CSB-MP024093MOV) (cynomolgus monkey, UniProt Q4R8Y9 35-355).
T7 construct: extracellular domain; Bought protein; also called cynomolgus 5T4; cynomolgus monkey 5T4 extracellular domain
T7 sequence (looked up): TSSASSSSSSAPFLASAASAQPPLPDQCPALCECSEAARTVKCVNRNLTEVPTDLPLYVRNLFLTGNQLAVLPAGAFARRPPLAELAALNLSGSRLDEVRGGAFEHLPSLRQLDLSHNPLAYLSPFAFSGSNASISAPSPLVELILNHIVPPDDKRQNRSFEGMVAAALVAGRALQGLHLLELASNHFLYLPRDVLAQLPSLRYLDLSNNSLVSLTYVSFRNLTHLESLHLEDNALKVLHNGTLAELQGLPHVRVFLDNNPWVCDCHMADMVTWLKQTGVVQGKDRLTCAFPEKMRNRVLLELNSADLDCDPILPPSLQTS
The assay is described as above.

B1: bsIgG1-b12-FEALx5T4-226-FEAR-FITC (bispecific antibody, V domains shown)
VH 1: QVQLVQSGAEVKKPGASVKVSCQASGYRFSNFVIHWVRQAPGQRFEWMGWINPYNGNKEFSAKFQDRVTFTADTSANTAYMELRSLRSADTAVYYCARVGPYSWDDSPQDNYYMDVWGKGTTVIVSS
VL 1: EIVLTQSPGTLSLSPGERATFSCRSSHSIRSRRVAWYQHKPGQAPRLVIHGVSNRASGISDRFSGSGSGTDFTLTITRVEPEDFALYYCQVYGASSYTFGQGTKLERK
VH 2: QVQLQQWGAGLLKPSETLSLTCAVYGGSFSGYYWSWIRQPPGKGLEWIGEIDHSGSTNYNPSLKSRVTISVDTSKNQFSLKLSSVTAADTAVYYCAAWFGELWDYYYGMDVWGQGTTVTVSS
VL 2: EIVLTQSPATLSLSPGERATLSCRASQSVSSFLAWYQQKPGQAPRLLIYDASNRATGIPARFSGSGSGTDFTLTISSLEPEDFAVYYCQQRSNWPLTFGQGTRLEIK
notes: b12 arm IgG1 FEAL, 5T4 arm IgG1 FEAR
B1: the “Z-score (fold change) of binding” value in assay [1] was -1.63; in assay [2], -1.67; in assay [3] it was -1.65.

B2: IgG1-5T4-127-FEAR (antibody, V domains shown)
VH: EVQLLESRGGLVQPGGSLRLSCAASGFTFSSYAMSWVRQAPGKGLEWVSTISGSGGSTYYADSVKGRFTISRDNSKKTLYLQMNSLRAEDTAVYYCAKDWGSGSYPAEYFQHWGQGTLVTVSS
VL: EIVLTQSPATLSLSPGERATLSCRASQSVSSYLAWYQQKPGQAPRLLIYDASNRATGIPARFSGSGSGTDFTLTISSLEPEDFAVYYCQQRSNWLMYTFGQGTKLEIK
notes: Monospecific, bivalent human IgG1 kappa with L234F, L235E, D265A, K409R (FEAR)
What is called EC50 (read off the curve) is the concentration at which the effect is half-maximal. Usually Kd stands for the concentration at which binding is half-saturated. For orientation: koff means the first-order rate constant of dissociation. Broadly, the kon is the rate constant with which the complex forms. Regarding B2, the corrected association response is -0.01 nm in assay [4]; -0.1 nm in [5]; -0.02 nm in [6]; 0 nm in [7]; -0.02 nm in [8]; -0.01 nm in assay [9]. The corrected association response in [10] is 1.29 nm; in assay [11] it was 1.51 nm; in assay [12], 0.87 nm; in assay [13], 0.01 nm. The results for the “EC50 (read off the curve)” value in assay [14], in [15] and in assay [16] were around 0.03 µg/mL, around 0.03 µg/mL and around 0.02 µg/mL, respectively. Also, the figures for the Kd in [17] and in assay [18] were 27 nM and 41 nM, respectively. In addition, the koff in [17] came out at 0.016 s⁻¹; in [18], 0.015 s⁻¹. Further, the kon in assay [17] came out at 580000 M⁻¹ s⁻¹; in assay [18], 370000 M⁻¹ s⁻¹.

For the origin of these results see patent US20230257479A1 (Genmab, published 2023).
